In the supplement of paper PMC10567573:
± gives the standard deviation.

Assay: protein stability index of a GFP-peptide fusion (GPS, HEK-293T) (PSI 1-6); higher = more stable
[1] = treatment: DMSO, c terminus: a fixed tail appended
[2] = treatment: MLN4924 1 uM, 8 h, c terminus: a fixed tail appended
[3] = treatment: DMSO, c terminus: native
[4] = treatment: MLN4924 1 uM, 8 h, c terminus: native
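Further: 24-mer peptide tiles fused after GFP, lentivirally expressed, FACS-sorted into six equal bins by GFP/DsRed ratio, decoded by Illumina sequencing, PSI is the read-weighted mean bin number.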

Sequence	protein stability index [1]	protein stability index [2]	protein stability index [3]	protein stability index [4]
QLLARRMQVDKKRVYLATDDPSLL [FUT8]	2.61 ± 0.23	2.92 ± 0.27	–	–
ELRRDSSESQLASTESDKPTTGRV [C18orf25]	5.28 ± 0.38	5.39 ± 0.21	–	–
LKRAFEAANLPALVLKIMSGTFAP [NEK8]	2.57 ± 0.59	2.71 ± 0.57	–	–
EAGYYFFNGNYKVDSPKNFNIAGT [ADAMTSL2]	2.34 ± 0.35	2.44 ± 0.31	–	–
TWDGRPLTMAATFDDCLYALCVVD [GFOD1]	2.38 ± 0.46	2.35 ± 0.61	–	–
AEGHKASFCLEDTECEGDIQKNYE [LOXL2]	5.47 ± 0.4	5.33 ± 0.33	–	–
TYECRCIGEEKEMWNFGEKYARF [TIA1]	–	–	2.58 ± 0.59	2.93 ± 0.65
CFFRDHSYQEEAAMELKVEDPFYW [MOG]	3.04 ± 0.23	3.02 ± 0.24	–	–
LTGTARYMSINTHLGKEQSRRDDL [CSNK1G1]	3.9 ± 0.31	4.02 ± 0.46	–	–
RVSRKPTAAMRCMCPLYDPNRQLW [GAN]	2.48 ± 0.67	2.34 ± 0.47	–	–
PESVERLTGVSISQVNHKPLRTA [FLOT1]	–	–	2.66 ± 0.69	3.11 ± 0.18
QGQPVVNRPLSLKDQQTFARSVGL [TRADD]	3.67 ± 0.35	3.9 ± 0.12	–	–
EFVIIDCRYPYEYEGGHIKGAVNL [CDC25A]	2.47 ± 0.29	2.3 ± 0.43	–	–
LVHIVCHKKTTHKLNCDPSRIYKP [DFFB]	2.41 ± 0.11	1.96 ± 0.41	–	–
VGRTVLDMLIREVVEKRLCMYEHG [RSPH3]	2.89 ± 0.52	3.39 ± 0.14	–	–
MKVEAKSHLQWQESRLKRSNPLAR [ZSCAN9]	3.35 ± 0.33	3.67 ± 0.19	–	–
DKDVRLLVACCLADIFRIYAPEAP [PDS5B]	3.08 ± 0.48	3.02 ± 0.08	–	–
AFLLLPLPDELGSQLPQVLHVSLG [MOSPD3]	2.96 ± 0.76	2.73 ± 0.49	–	–
TACSLPLCACLLGQKMLRHCGRT [PXN]	–	–	3.03 ± 0.76	2.28 ± 0.4
YNHQHKYFFLIGPPALLPLYFQWY [FADS1]	3.18 ± 0.66	2.38 ± 0.32	–	–
TATDGGSPPLSTEAHFMLQVADIN [PCDHGA10]	4.18 ± 0.089	4.19 ± 0.16	–	–
LIDRSGRHFGTILNYLRDGSVPLP [KCTD13]	2.37 ± 0.28	2.46 ± 0.32	–	–

Sequence	protein stability index [1]	protein stability index [2]	protein stability index [3]	protein stability index [4]
TILLDGQRVKLKLWDTSGQGRFCT [RAB40A]	2.21 ± 0.13	2.21 ± 0.23	–	–
EASNFQMDRKTRFIIHGFIDKGDE [PNLIPRP1]	3.26 ± 0.21	3.27 ± 0.27	–	–
NDRDFLTRIFTEDRFAQDSEMKKC [PPEF2]	4.61 ± 0.16	4.79 ± 0.21	–	–
VTGYGINGTGDSNDFWRIEVVNRK [POMT2]	3.29 ± 0.21	3.39 ± 0.17	–	–
EWDKNKSAFPFSDKLGELSDKIGS [CLINT1]	3.57 ± 0.37	3.6 ± 0.22	–	–
RASYSDGKLKAPPKPCAGNQGTQI [MLH1]	4.05 ± 0.53	4.17 ± 0.14	–	–
DKALMIAMEYAPGGTLAEFIQKRC [NEK8]	2.39 ± 0.26	2.54 ± 0.17	–	–
AASTAAALENLQVEASCSVCLEYL [TRIM39]	2.74 ± 0.37	2.81 ± 0.48	–	–
DRDAEDQNRYLDGMVRAHGVRVSV [BET1L]	3.85 ± 0.22	3.87 ± 0.29	–	–
KVSQWWERLTKQEKRPLFLAPDFD [HACD3]	2.34 ± 0.31	2.55 ± 0.089	–	–
KKHNVTAVVRLNKKIYEAKRFTDA [CDC14A]	2.73 ± 0.2	2.49 ± 0.24	–	–
PGRRGDPDTAPPSERPLEDLRLRL [RTN2]	4.43 ± 0.2	4.63 ± 0.21	–	–
ANSSSEAPFPNVSTSLLTSAGNRT [ADAMTSL2]	4.52 ± 0.36	4.49 ± 0.29	–	–
VDHHGTAQLQALRQKEVDFCISLL [INTS3]	2.23 ± 0.2	2.35 ± 0.45	–	–
TEKDLLEDGFGEHPFYHCLVAEVP [SAT1]	3.35 ± 0.32	3.41 ± 0.37	–	–
DKRHVEQKIQFKRETASLKLLPHQ [PDZK1]	3.85 ± 0.31	3.8 ± 0.24	–	–
TTSDIPHMLNQVESKVKDILSKVQ [FAM98B]	2.48 ± 0.38	2.32 ± 0.32	–	–
TKPKTTAIQGISEKEKAEIEAKEA [DLC1]	5.56 ± 0.25	5.35 ± 0.35	–	–
GGLSLHDYKLLKPSLAVNLADPYR [JUNB]	2.65 ± 0.13	2.76 ± 0.098	–	–
SFARDLPDFPSINMDPAGLDDEDD [RETREG3]	5.41 ± 0.32	5.49 ± 0.098	–	–
AKKIKLTAEAEELKPFFMKEVGSH [SOAT1]	3.5 ± 0.34	3.59 ± 0.38	–	–
DRISTTFRLTTLLMSGCSSELKNR [PLK2]	2.19 ± 0.46	2.43 ± 0.18	–	–

Sequence	protein stability index [1]	protein stability index [2]	protein stability index [3]	protein stability index [4]
EEVVSFVKKNVLVTGGFFGGFLLG [FUNDC2]	2.36 ± 0.68	2.61 ± 0.73	–	–
NNPEYLRERNMAPDLRQDFNMMEQ [ADD1]	4.74 ± 0.27	4.87 ± 0.18	–	–
IVAIIPYFITLGTEIAEQEGNQKG [KCNA1]	2.87 ± 0.71	2.55 ± 0.48	–	–
LQTGPLLGRPDSLELQRQREARKR [RSPH3]	4.83 ± 0.2	5.08 ± 0.31	–	–
IYNSHLVVHQRVHSGEKPYKCSDC [ZNF232]	2.9 ± 0.23	3.02 ± 0.28	–	–
GSSSVALPKEASDGTGASQEPPTT [TOR1AIP2]	5.4 ± 0.43	5.6 ± 0.34	–	–
ALEEPEKMGLQERSETFLEVWGNA [DNAAF3]	4.35 ± 0.22	4.32 ± 0.42	–	–
ERSGCALTDAVAPGNKGRGQRGNT [TCF25]	5.22 ± 0.11	5.23 ± 0.13	–	–
LFGGFADFGSAAASGSFPSQVTAT [CLINT1]	2.71 ± 0.37	3.02 ± 0.33	–	–
ETPNPPQSAQIACSSPSVVASLPL [MAGEA10]	4.62 ± 0.25	4.59 ± 0.38	–	–
LFVLFMFFGMAFNFIVNDSRKKPI [SOAT1]	3.19 ± 0.45	2.99 ± 0.24	–	–
NKLQYHAGLASGLLNQQSLKRSAN [MED27]	3.47 ± 0.25	3.51 ± 0.29	–	–
EERERKRRKEEEVQQQKLAEERRR [FAF2]	5.34 ± 0.34	5.36 ± 0.25	–	–
ELFKKDPGFDRGQFHKQIAVMRGQ [PI4K2A]	2.8 ± 0.33	3.03 ± 0.19	–	–
CYNGQDAVVNELIDYGANVNQPNN [ANKRD44]	4.16 ± 0.088	4.24 ± 0.21	–	–
MLLSVSQSMSEEEREKVTPLMVKG [SEPHS2]	3.83 ± 0.36	3.86 ± 0.43	–	–
KVDGPRSPSYGRSRSRSRSRSRSR [SRSF1]	5.27 ± 0.26	5.46 ± 0.14	–	–
PDDFVPPVPPPSYFATFYSCTPRM [FAM189A2]	2.65 ± 0.15	2.7 ± 0.32	–	–
FVSALGITAGAHRLWSHRSYKARL [SCD]	2.73 ± 0.93	2.5 ± 0.24	–	–
TGSTYNLSSGMAVAGMPTAYDLSS [CARM1]	3.27 ± 0.21	3.42 ± 0.44	–	–
DKLYHPECFMCSDCGLNLKQRGYF [PDLIM4]	2.22 ± 0.18	2.23 ± 0.33	–	–
